Assay results reported in patent US20180312539A1, “METHODS FOR PREPARING HIGH THROUGHPUT PEPTIDOMIMETICS, ORALLY BIOAVAILABLE DRUGS AND COMPOSITIONS CONTAINING SAME” (University of Southern California, priority 2011, published 2018).
Where “and” joins values, the source holds several entries; their conditions need not be identical. Equal entries are not always repeated. Where no end group is shown, it is not given here. [ ]: non-standard residue; d: D form. The star is where a group is joined. Biotin = O=C1N[C@H]2[C@H](CS[C@H]2CCCCC(=O)*)N1; NMeW = CN[C@@H](Cc1c[nH]c2ccccc12)C(=O)O; NMeNva = CCC[C@H](NC)C(=O)O

Key:
[1] = PAMPA (parallel artificial membrane permeability assay); type: in vitro ADME; conditions: for Log Pe of peptide (biotinylated): biotin-labeled peptide (number + B), non-reducible biotin; for Log Pe of peptide (biotinylated) / Log Pe of peptide: PBS pH 7.4, 24 hrs; for Log Pe of peptide: unmodified peptide, room temperature; for Log Pe: peptide conjugated to biotin containing a reducible disulfide (RB), acceptor well reducing (10 mM DTT)
Method: PAMPA assays were set up following manufacturer's instructions. Briefly, 1% phosphatidyl choline (Sigma) was dissolved in dodecane (Sigma) at 65° C. for 3 min. The membrane was applied to each well as per manufacturer's instructions. […] 100 μL of sample was put into each donor well. The acceptor wells contained 300 μL of a 5% DMSO in PBS solution. Passive diffusion was allowed to occur at room temperature for 24 hrs. […] Absorbance at 215 nm was monitored. The area under the peptide peak was integrated.
The acceptor well contained 10 mM DTT as a reducing agent. Data was collected after 6, 12 and 24 hrs. Absorbance at 280 nm was analyzed. The following formula was used to calculate Log Pe: […]
Applicants employed a parallel artificial membrane permeability assay (PAMPA) that will allow for the rapid screening of peptide passive diffusion across a phospholipid bilayer. (Schmidt, et al. (2003) J. Millipore Corporation Application Note AN1729EN00.). In this assay, two chambers are separated by a phospholipid bilayer supported on an inert membrane. Applicants chose to initially focus Applicants examination on peptide ligands developed to bind with high affinity to the heterotrimeric G-proteins Gαi1*GDP and Gα12*GDP. Ja, W. W., et al. (2004) Biochemistry 43:9265; Millward, S. W., et al. (2007) ACS Chem. Biol. 2:625; Fiacco, S. et al. (2008) ChemBioChem 9:2200. These ligands included variations in sequence, size, overall charge, and polarity as well as comparing linear and cyclic peptides, end and biotinylation. […] According to classical methods of increasing permeability. Pinski, C. A., et al. (2001) Advanced Drug Delivery Reviews 46:3. Applicants postulated that the removal of hydrogen bond donors by N-methylation should further increase the permeability of this peptide.

chymotrypsin = molecular target: T1, chymotrypsin (Bos taurus, UniProt P00766); assay: Protease resistance experiment, chymotrypsin digest; type: in vitro ADME
T1 construct: purchased Sigma
Method: Immobilized chymotrypsin and proteinase K purchased from Sigma.
Protease resistance enhancement was then tested.
Towards that end, three peptides were synthesized. […] The effects were dramatic and surprising.

proteinase K = proteinase K (Parengyodontium album, UniProt P06873); conditions: immobilized proteinase K, 4° C; for Cyc t1/2: cyclic peptide; for Lin t1/2: linear peptide
Method: Immobilized chymotrypsin and proteinase K purchased from Sigma. 250 nmoles of peptide in DMSO were added to 50 mM sodium phosphate buffer (pH=8.0) with a final DMSO concentration of 2%. […] The graph was generated by fitting the data to a one phase exponential decay equation (GraphPad Prism 5.0).
Protease resistance enhancement was then tested. The simplest solution for enhancing protease resistance would be the removal of amino acids recognized by protease K and chymotrypsin.
Next the role of each of the N-methyl alanines was analyzed independently. […] For example sequence modifications, including N-methylation would be accomplished one amino acid at a time, walking the peptide from low protease stability to high stability. Whether this is a viable approach for making a peptide like SUPR was investigated. Towards that end, Applicants walked back from SUPR peptide to something closer to cycGIBP, and to determine if there was a gradual decrease in protease resistance. Towards that end, three peptides were synthesized. Two of them contained only one NMA (alanine was substituted for NMA), and the other had no NMA. It was hypothesized that if one could walk back to cycGIBP, then one would expect the loss of a single N-methyl to have some effect on reducing protease resistance, but to still be better than cycGIBP.

Chain of proteinase K (P06873 106-384): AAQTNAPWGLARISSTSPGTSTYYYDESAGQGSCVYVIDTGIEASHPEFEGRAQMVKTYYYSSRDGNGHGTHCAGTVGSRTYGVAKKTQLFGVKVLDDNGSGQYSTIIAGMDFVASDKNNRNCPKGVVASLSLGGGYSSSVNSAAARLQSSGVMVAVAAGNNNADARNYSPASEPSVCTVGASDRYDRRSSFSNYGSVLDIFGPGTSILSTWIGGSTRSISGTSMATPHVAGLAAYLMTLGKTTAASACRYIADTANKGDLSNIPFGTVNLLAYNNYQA

Row | Substance | Log Pe of peptide (biotinylated) [1] | Log Pe of peptide [1] | further results
1 | (N-MeNva)ITWYEFVAGTK ([NMeNva]ITWYEFVAGTK(Biotin)-NH2; N-terminus assumed; SMILES CCC[C@H](NC)C(=O)N[C@H](C(=O)N[C@H](C(=O)N[C@@H](Cc1c[nH]c2ccccc12)C(=O)N[C@@H](Cc1ccc(O)cc1)C(=O)N[C@@H](CCC(=O)O)C(=O)N[C@@H](Cc1ccccc1)C(=O)N[C@H](C(=O)N[C@@H](C)C(=O)NCC(=O)N[C@H](C(=O)N[C@@H](CCCCNC(=O)CCCC[C@@H]1SC[C@@H]2NC(=O)N[C@@H]21)C(N)=O)[C@@H](C)O)C(C)C)[C@@H](C)O)[C@@H](C)CC) [Peptide 9] | −7.4 ± −0.1 | −7.0 ± −0.1 | 
2 | Cyclo-MITWYEFVAGTK (not fully specified (C-terminus, bridges); printed as Cyclo-MITWYEFVAGTK; also: cyclized, ring closure not given here) [Peptide 8] | −6.5 and −6.5 ± −0.0 | −8.2 ± −0.2 | Log Pe [1]: −5.9
3 | MITWYEFVAGTK [reference compound] |  |  | Cyc t1/2 (chymotrypsin): 126 s; Lin t1/2 (chymotrypsin): 19.8 s; Cyc t1/2 (proteinase K): 60 s; Lin t1/2 (proteinase K): <12 s
4 | MFYAYEYAQWSK |  |  | Cyc t1/2 (chymotrypsin): <12 s; Lin t1/2 (chymotrypsin): <12 s; Cyc t1/2 (proteinase K): <12 s; Lin t1/2 (proteinase K): <12 s
5 | MITWYEFVAGTK [Peptide 7] | −6.6 ± −0.1 | −7.8 ± −0.1 | 
6 | MSQTKRLDDQLYWWEYL (Biotin-MSQTKRLDDQLYWWEYL) [Peptide 10] | −6.2 and −6.2 ± −0.0 | −8.4 ± −0.1 | Log Pe [1]: −4.8; fold increase in peptide delivery ([1]; reducible vs nonlabile biotin conjugate): 16 fold
7 | MRLVWIVRSRHFGPRLRMAK (MRLVWIVRSRHFGPRLRMAK(Biotin)-NH2; N-terminus assumed; SMILES CC[C@H](C)[C@H](NC(=O)[C@H](Cc1c[nH]c2ccccc12)NC(=O)[C@@H](NC(=O)[C@H](CC(C)C)NC(=O)[C@H](CCCNC(=N)N)NC(=O)[C@@H](N)CCSC)C(C)C)C(=O)N[C@H](C(=O)N[C@@H](CCCNC(=N)N)C(=O)N[C@@H](CO)C(=O)N[C@@H](CCCNC(=N)N)C(=O)N[C@@H](Cc1c[nH]cn1)C(=O)N[C@@H](Cc1ccccc1)C(=O)NCC(=O)N1CCC[C@H]1C(=O)N[C@@H](CCCNC(=N)N)C(=O)N[C@@H](CC(C)C)C(=O)N[C@@H](CCCNC(=N)N)C(=O)N[C@@H](CCSC)C(=O)N[C@@H](C)C(=O)N[C@@H](CCCCNC(=O)CCCC[C@@H]1SC[C@@H]2NC(=O)N[C@@H]21)C(N)=O)C(C)C) [Peptide 11] | −6.0 ± −0.1 |  | 
8 | NNNNNDKLY(N-MeW)WEFL (Biotin-NNNNNDKLY[NMeW]WEFL) [Peptide 6] | −6.6 ± −0.1 | >−9.0 | 
